According to publication PMC9942953, “Merlin tumor suppressor function is regulated by PIP2-mediated dimerization” (PLOS ONE, 2023):
Each block holds one binder with its values, some of them ahead of it.

What was measured:
[1] = target: T1, Merlin L64P, patient derived mutant, P35240; test: co-IP; HEK 293T co-transfected with a GFP fusion and a NanoLuc fusion; lysis in TBS, 2 mM MgCl2, 0.5% NP-40; GFP-Trap_MA; ratio of bound to unbound luciferase activity normalised to GFP fluorescence; conditions: remark: other sources report otherwise
T1 chain: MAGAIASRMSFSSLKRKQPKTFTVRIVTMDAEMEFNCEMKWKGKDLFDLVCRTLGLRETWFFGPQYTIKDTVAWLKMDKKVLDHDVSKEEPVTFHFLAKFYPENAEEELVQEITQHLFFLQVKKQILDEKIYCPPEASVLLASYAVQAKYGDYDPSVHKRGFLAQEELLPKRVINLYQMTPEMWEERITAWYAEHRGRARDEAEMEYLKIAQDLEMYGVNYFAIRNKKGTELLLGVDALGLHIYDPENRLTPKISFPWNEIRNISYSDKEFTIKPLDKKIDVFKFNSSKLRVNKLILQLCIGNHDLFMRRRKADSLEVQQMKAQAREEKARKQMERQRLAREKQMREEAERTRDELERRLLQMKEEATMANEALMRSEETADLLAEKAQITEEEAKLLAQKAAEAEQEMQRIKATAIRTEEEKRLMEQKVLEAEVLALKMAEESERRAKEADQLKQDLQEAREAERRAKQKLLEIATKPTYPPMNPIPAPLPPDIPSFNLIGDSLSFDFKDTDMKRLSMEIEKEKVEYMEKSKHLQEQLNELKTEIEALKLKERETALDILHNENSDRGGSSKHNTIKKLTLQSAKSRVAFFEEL

[2] = target: the molecule itself; test: as above

fold dimerization relative to wild type [1]: 1.28 fold
B1: Merlin L64P, patient derived mutant, P35240 1-595 (natural protein)
chain: T1 chain

B2: Merlin ΔN18, deletion of the N-terminal 18 amino acids (domain or fragment, UniProt P35240 19-595, looked up)
chain: PKTFTVRIVTMDAEMEFNCEMKWKGKDLFDLVCRTLGLRETWFFGLQYTIKDTVAWLKMDKKVLDHDVSKEEPVTFHFLAKFYPENAEEELVQEITQHLFFLQVKKQILDEKIYCPPEASVLLASYAVQAKYGDYDPSVHKRGFLAQEELLPKRVINLYQMTPEMWEERITAWYAEHRGRARDEAEMEYLKIAQDLEMYGVNYFAIRNKKGTELLLGVDALGLHIYDPENRLTPKISFPWNEIRNISYSDKEFTIKPLDKKIDVFKFNSSKLRVNKLILQLCIGNHDLFMRRRKADSLEVQQMKAQAREEKARKQMERQRLAREKQMREEAERTRDELERRLLQMKEEATMANEALMRSEETADLLAEKAQITEEEAKLLAQKAAEAEQEMQRIKATAIRTEEEKRLMEQKVLEAEVLALKMAEESERRAKEADQLKQDLQEAREAERRAKQKLLEIATKPTYPPMNPIPAPLPPDIPSFNLIGDSLSFDFKDTDMKRLSMEIEKEKVEYMEKSKHLQEQLNELKTEIEALKLKERETALDILHNENSDRGGSSKHNTIKKLTLQSAKSRVAFFEEL
notes: Merlin isoform 1 without its unique N-terminal 18 amino acids; source: HEK 293T, co-transfected, in lysate; not shown: NanoLuc (probe copy) or EGFP (bait copy), C-terminal, kept
percent dimerization relative to wild type [2]: 33%
